In the supplement of paper PMC12764529:
± gives the half width of the 95% confidence interval.

Assays:
[1] = folding stability dG unfold (combined trypsin and chymotrypsin); higher = more stable
Method in brief: (§1)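 Mini-proteins designed to be under 80 residues and free of cysteine were carried in a PA-tagged cDNA display construct and digested with trypsin and with chymotrypsin. Each protease was applied at 11 threefold-diluted concentrations, alongside a no-protease condition, before sequencing. K50 came from Bayesian fitting of the sequencing counts, and unfolding free energy was obtained by comparing it with a sequence-predicted unfolded-state K50 and a shared folded-state K50, for each protease separately or for both together. Designs were retained only if their AlphaFold2 dimer inter-PAE exceeded 15.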

[2] = folding stability dG unfold from chymotrypsin proteolysis; higher = more stable
Method in brief: as §1

[3] = folding stability dG unfold from trypsin proteolysis; higher = more stable
Method in brief: as §1

Sequence: SAGGSAGGSAGGSGMTSTTYRLPEGNVVLVETFDPATGTVTLEIRGPPSVERTLTLPVASAGGSAGGSAGGS [r4_443_JUSTAS]
- folding stability dG unfold [1]: 3.21 ± 0.24 kcal/mol
- folding stability dG unfold [2]: 3.64 ± 0.088 kcal/mol
- folding stability dG unfold [3]: 2.63 ± 0.29 kcal/mol

Sequence: SAGGSAGGSAGGSGMTTTLLEQREFTLPNGEPVRVTVARFPGGEIVTETEDGVVTTDPLSAGGSAGGSAGGS [r4_111_JUSTAS]
- folding stability dG unfold [1]: 0.159 ± 0.08 kcal/mol
- folding stability dG unfold [2]: 0.281 ± 0.08 kcal/mol
- folding stability dG unfold [3]: -0.134 ± 0.064 kcal/mol

Sequence: SAGGSAGGSAGGSGMTYRTVEIEVRLPEVPGKTVKITIVVPEGATEEEIKALAEELARKSAGGSAGGSAGGS [r4_442_TrROS_Hall]
- folding stability dG unfold [1]: 2.94 ± 0.12 kcal/mol
- folding stability dG unfold [2]: 2.88 ± 0.039 kcal/mol
- folding stability dG unfold [3]: 2.87 ± 0.14 kcal/mol

Sequence: SAGGSAGGSAGGSGNPVVRVFEFDDYIAVVTFNPGDGSVEVLSVGKVPPAAIPGSPELSSAGGSAGGSAGGS [r4_21_TrMRF]
- folding stability dG unfold [1]: 1.17 ± 0.036 kcal/mol
- folding stability dG unfold [2]: 1.16 ± 0.033 kcal/mol
- folding stability dG unfold [3]: 1.08 ± 0.024 kcal/mol

Sequence: SAGGSAGGSAGGSGPPSLPGVLVEIPEPLPGPEGTEFSDPKGYKYTYDPSNGKVLVERASAGGSAGGSAGGS [r4_78_JUSTAS]
- folding stability dG unfold [1]: -0.242 ± 0.19 kcal/mol
- folding stability dG unfold [2]: -0.0458 ± 0.16 kcal/mol
- folding stability dG unfold [3]: -0.753 ± 0.17 kcal/mol

Sequence: SAGGSAGGSAGGSGPSVTVSTTTLPPLPVTVETVTVGDTTVLVVFTPEGGSAVVPSGALSAGGSAGGSAGGS [r4_256_JUSTAS]
- folding stability dG unfold [1]: 1.4 ± 0.087 kcal/mol
- folding stability dG unfold [2]: 0.858 ± 0.02 kcal/mol
- folding stability dG unfold [3]: 1.96 ± 0.091 kcal/mol

Sequence: SAGGSAGGSAGGSGPSVVLVSLPDGSYIAFPSGADVNIEIPSSSSGARIVAVIPLSELSSAGGSAGGSAGGS [r4_122_TrMRF]
- folding stability dG unfold [1]: 0.518 ± 0.11 kcal/mol
- folding stability dG unfold [2]: 0.714 ± 0.024 kcal/mol
- folding stability dG unfold [3]: 0.111 ± 0.059 kcal/mol

Sequence: SAGGSAGGSAGGSGSMSVSGGPSVIVVTLPGGEKVVLPLDELDELYKLPYVSATTVSLPSAGGSAGGSAGGS [r4_348_JUSTAS]
- folding stability dG unfold [1]: 1.13 ± 0.14 kcal/mol
- folding stability dG unfold [2]: 0.24 ± 0.18 kcal/mol
- folding stability dG unfold [3]: 1.45 ± 0.065 kcal/mol

Sequence: SAGGSAGGSAGGSGSVRIKVYNPKTGEVLELEVPEELVPAAVEAAKALGFEKVEVSPGKSAGGSAGGSAGGS [r4_102_TrMRF]
- folding stability dG unfold [1]: 2.49 ± 0.13 kcal/mol
- folding stability dG unfold [2]: 2.91 ± 0.077 kcal/mol
- folding stability dG unfold [3]: 1.59 ± 0.065 kcal/mol

Sequence: SAGGSAGGSAGGSGVLNIDEVWEDPESDLYTVVTTGEDEGTRVFVFDKNGKLLAEADLPSAGGSAGGSAGGS [r4_259_TrMRF]
- folding stability dG unfold [1]: 0.443 ± 0.1 kcal/mol
- folding stability dG unfold [2]: 0.405 ± 0.12 kcal/mol
- folding stability dG unfold [3]: 0.274 ± 0.034 kcal/mol

Sequence: SAGGSAGGSAGGSIEINIMFELPNGLIFRISTTIEPNPDGNLKLDIDIEVIPIKPGQPISAGGSAGGSAGGS [r10_241_TrROS]
- folding stability dG unfold [1]: 3.96 ± 0.23 kcal/mol
- folding stability dG unfold [2]: 4.19 ± 0.13 kcal/mol
- folding stability dG unfold [3]: 3.11 ± 0.14 kcal/mol

Sequence: SAGGSAGGSAGGSIEPITIILPDKIIRIYRFEDGTIVEIIDPETGKPTFISLEDAKKLIGSAGGSAGGSAGG [r7_372_TrMRF]
- folding stability dG unfold [1]: 2.61 ± 0.16 kcal/mol
- folding stability dG unfold [2]: 2.81 ± 0.043 kcal/mol
- folding stability dG unfold [3]: 2.33 ± 0.14 kcal/mol

Sequence: SAGGSAGGSAGGSIVVRITPNPETGTVTIDVYRVLPPGVLRPGAGFTVPLSLIPPGAVVGSAGGSAGGSAGG [r7_455_TrMRF]
- folding stability dG unfold [1]: 1.09 ± 0.053 kcal/mol
- folding stability dG unfold [2]: 1.17 ± 0.047 kcal/mol
- folding stability dG unfold [3]: 0.973 ± 0.018 kcal/mol

Sequence: SAGGSAGGSAGGSKDITITHEHNPNGWYRVKIRFPDNGKKIEIWVPAGRSVEEALDWLFSAGGSAGGSAGGS [r4_393_TrROS]
- folding stability dG unfold [1]: 3.25 ± 0.12 kcal/mol
- folding stability dG unfold [2]: 3.2 ± 0.038 kcal/mol
- folding stability dG unfold [3]: 3.06 ± 0.12 kcal/mol

Sequence: SAGGSAGGSAGGSKELTVLVVEKNEDGTLTVRKFKIELKDGELKIVEEEEKTVPLEELKSAGGSAGGSAGGS [r4_389_TrROS_Hall]
- folding stability dG unfold [1]: 2.04 ± 0.12 kcal/mol
- folding stability dG unfold [2]: 2.42 ± 0.037 kcal/mol
- folding stability dG unfold [3]: 1.41 ± 0.074 kcal/mol

Sequence: SAGGSAGGSAGGSKETVKIAIKVKPGEKEITIEIKGKKYKVKVEEKDGLLYLTVSKEDLSAGGSAGGSAGGS [r4_430_TrROS_Hall]
- folding stability dG unfold [1]: 3.34 ± 0.32 kcal/mol
- folding stability dG unfold [2]: 3.44 ± 0.22 kcal/mol
- folding stability dG unfold [3]: 4.4 ± 0.54 kcal/mol

Sequence: SAGGSAGGSAGGSKIRLKINMTEEELKELLKKLFPNAKVTRIERKKDGSIYVEIELEPESAGGSAGGSAGGS [r4_95_TrROS_Hall]
- folding stability dG unfold [1]: 3.09 ± 0.11 kcal/mol
- folding stability dG unfold [2]: 3.23 ± 0.082 kcal/mol
- folding stability dG unfold [3]: 2.94 ± 0.11 kcal/mol

Sequence: SAGGSAGGSAGGSKKKKIIIVVPKEELSEEQIKALKDLGYEIEIVEVEKKPVKVKKKKKSAGGSAGGSAGGS [r4_294_TrROS_Hall]
- folding stability dG unfold [1]: 1.53 ± 0.22 kcal/mol
- folding stability dG unfold [2]: 2.08 ± 0.12 kcal/mol
- folding stability dG unfold [3]: 0.62 ± 0.068 kcal/mol

Sequence: SAGGSAGGSAGGSKKKVLYIKIDVKPNMTPEEVAKLLQEKFGVKIKKVEVENGYLKIYFSAGGSAGGSAGGS [r4_469_TrROS_Hall]
- folding stability dG unfold [1]: 3.49 ± 0.048 kcal/mol
- folding stability dG unfold [2]: 3.8 ± 0.044 kcal/mol
- folding stability dG unfold [3]: 2.82 ± 0.062 kcal/mol

Sequence: SAGGSAGGSAGGSKKYFFKIKKIKVETKLEVNEDGSLTEEKKIEIEIELRELPSLEDLLSAGGSAGGSAGGS [r4_450_TrROS_Hall]
- folding stability dG unfold [1]: 4.16 ± 0.2 kcal/mol
- folding stability dG unfold [2]: 4.62 ± 0.17 kcal/mol
- folding stability dG unfold [3]: 3.56 ± 0.25 kcal/mol

Sequence: SAGGSAGGSAGGSKPKVKITIEKNKETNEYTITIEKDGKKYTFVVKNLKPDDPAIKKALSAGGSAGGSAGGS [r4_328_TrROS_Hall]
- folding stability dG unfold [1]: 2.55 ± 0.09 kcal/mol
- folding stability dG unfold [2]: 3.007 ± 0.03 kcal/mol
- folding stability dG unfold [3]: 1.1 ± 0.043 kcal/mol
